Numbering of substitutions follows the chain as printed.
Columns and labels:
[1] = target: T1, PcRsmA (Penicillium chrysogenum Wis54-1255 (P. rubens Wis54-1255)) (UniProt B6GZ21); assay: EMSA; settings: LightShift binding buffer 1X, about 10% glycerol, 5 mM MgCl2, 20 fmol biotin probe, 10 ug protein, 20 uL, room temperature 20 min; 5% native PAGE in 0.5X TBE …
T1 sequence: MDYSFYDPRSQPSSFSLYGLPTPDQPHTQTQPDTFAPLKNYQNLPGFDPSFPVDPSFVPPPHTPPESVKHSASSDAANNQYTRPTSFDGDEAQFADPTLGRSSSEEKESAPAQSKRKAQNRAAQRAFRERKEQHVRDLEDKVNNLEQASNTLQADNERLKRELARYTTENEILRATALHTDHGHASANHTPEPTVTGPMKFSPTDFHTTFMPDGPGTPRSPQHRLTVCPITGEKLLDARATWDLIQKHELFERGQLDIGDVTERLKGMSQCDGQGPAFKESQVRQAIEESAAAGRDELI

[2] = target: T2, PcYap1 (Penicillium chrysogenum Wis54-1255 (P. rubens Wis54-1255)) (UniProt B6HDY4); assay: EMSA; settings: LightShift binding buffer 1X, about 10% glycerol, 5 mM MgCl2, 20 fmol biotin probe, 10 ug protein, 20 uL, room temperature 20 min; 5% native PAGE in 0.5X TBE …
T2 sequence: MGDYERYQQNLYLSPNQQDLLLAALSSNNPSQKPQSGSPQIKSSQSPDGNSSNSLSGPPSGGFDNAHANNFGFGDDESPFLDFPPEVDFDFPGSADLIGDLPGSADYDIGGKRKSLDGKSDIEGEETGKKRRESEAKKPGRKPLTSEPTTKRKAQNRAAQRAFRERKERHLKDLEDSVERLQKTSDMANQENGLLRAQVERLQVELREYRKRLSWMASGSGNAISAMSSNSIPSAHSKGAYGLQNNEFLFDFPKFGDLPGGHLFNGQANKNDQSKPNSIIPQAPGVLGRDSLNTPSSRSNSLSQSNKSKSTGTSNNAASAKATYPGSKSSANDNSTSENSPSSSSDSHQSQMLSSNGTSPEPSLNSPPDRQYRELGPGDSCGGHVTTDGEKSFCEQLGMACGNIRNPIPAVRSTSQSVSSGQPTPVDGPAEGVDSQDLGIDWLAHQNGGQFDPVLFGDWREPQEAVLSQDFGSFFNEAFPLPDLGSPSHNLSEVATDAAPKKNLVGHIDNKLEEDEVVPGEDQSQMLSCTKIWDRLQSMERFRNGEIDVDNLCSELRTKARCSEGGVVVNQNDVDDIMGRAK

PcRsmA = target: T3, PcRsmA (Penicillium chrysogenum Wis54-1255 (P. …, UniProt B6GZ21 1-299)); assay: EMSA; LightShift binding buffer 1X, about 10% glycerol, 5 mM MgCl2, 20 fmol biotin probe, 10 ug protein, 20 uL, room temperature 20 min; 5% native PAGE in 0.5X TBE; pH and salt not given; settings: protein: recombinant; tags: C-terminal c-myc-6xHis; chain copies: 2; label: 3' biotin; blunt
T3 sequence: T1 sequence

PcYap1 = target: T4, PcYap1 (Penicillium chrysogenum Wis54-1255 (P. …, UniProt B6HDY4 1-582)); assay: as above; settings: protein: recombinant; tags: C-terminal c-myc-6xHis; chain copies: 2; label: 3' biotin; blunt
T4 sequence: T2 sequence

For “AACATCGCCGTCGTTGAGTGCACGTTGCCTACTCTCTCGTGGCTTGGCTGGGCCCACGAGCCCGATTGACTCGACGGTGTTACTTGGGTATCTATGGCCCCGTTTTCTGGCACGGTAATGATAAGTACTTACTAGTCTTCGAGCGGGGGAGTGTTGCTCTGCCCGAGCATCAACGATTGGCCTGA (double strand) [probe 4]”, the binding [1] was “no binding” and the binding [2] was “no binding”.

In the case of “CCGAGCATCAACGATTGGCCTGATCGCACCGTCTGCAAATGCCACGGTGCGGACCGACTGAAATCTCAGACCACCAAAGACCCTCCGACTTCGAGATACGG (double strand) [dwPta1]”, the binding [1] is reported as “no binding”.

“TGTTTATGCTGAGACAACCTGGAGACATTATACGCTTGCAGCCCAGATGCTTACTGGATGGGGCCGCTGGAGCCAGTGTAAAATTAGTAACCGTATCTCGAAGTCGGAGGGTCTTTGGTGGTCTGAGATTTCAGTCGGTCCGCACCGTGGCATTTGCAGACGGTGCGATCAGGCCAATCGTTGATGCTCGG (double strand) [probe 5]” was tested, and the binding [1] was “binds” and the binding [2] was “binds”.

B1: PTA1-WT (dsDNA)
DNA 1: GCCAGTGTAAAATTAGTAACCGTATCTC
DNA 2: GAGATACGGTTACTAATTTTACACTGGC
B1: no binding (PcRsmA); binds (PcYap1).

B2: PTA1-M1 (dsDNA)
DNA 1: GCCAGTGTAAAACTAGTCACCGTATCTC
DNA 2: GAGATACGGTGACTAGTTTTACACTGGC
B2: no binding (PcRsmA); no binding (PcYap1).

B3: AflR-RsmA (dsDNA)
DNA 1: CGACTGACACAAGAAATAACAATTC
DNA 2: GAATTGTTATTTCTTGTGTCAGTCG
B3: binds (PcRsmA).

B4: RsmA-2 (dsDNA)
DNA 1: CAGTAAGCATCTGGGCTGCAAGCGTATAATGTCTCCAGGTTGTCTCAGCATAAACA
DNA 2: TGTTTATGCTGAGACAACCTGGAGACATTATACGCTTGCAGCCCAGATGCTTACTG
B4: binds (PcRsmA).

B5: RsmA-2A (dsDNA)
DNA 1: CAGTAAGCATCTGGGCTGCAAGCGTATA
DNA 2: TATACGCTTGCAGCCCAGATGCTTACTG
B5: no binding (PcRsmA).

B6: RsmA-2B (dsDNA)
DNA 1: CAGTAAGCATCTGGGCTGCAAGCGTATAATGTCTCCAG
DNA 2: CTGGAGACATTATACGCTTGCAGCCCAGATGCTTACTG
B6: no binding (PcRsmA).

B7: RsmA-2C (dsDNA)
DNA 1: CTCCAGGTTGTCTCAGCATAAACA
DNA 2: TGTTTATGCTGAGACAACCTGGAG
B7: binds (PcRsmA).

B8: penDE-CRE123 (dsDNA)
DNA 1: AGGTCCTGCATTAGCGTACGCCCCAGGTTTAGATCAAAGTTACGTAATTTATATGTA
DNA 2: TACATATAAATTACGTAACTTTGATCTAAACCTGGGGCGTACGCTAATGCAGGACCT
B8: binds (PcRsmA); no binding (PcYap1).

B9: penDE-CRE123-M1 (dsDNA)
DNA 1: B8 DNA 1 with T40C, T45A
DNA 2: B8 DNA 2 with A13T, A18G
B9: no binding (PcRsmA).

B10: AP1-brlA (dsDNA)
DNA 1: AAAACAATACAATTTACTAAAGTCCACTGGGCA
DNA 2: TGCCCAGTGGACTTTAGTAAATTGTATTGTTTT
B10: no binding (PcRsmA); binds (PcYap1).

B11: AP1-brlA-Mut (dsDNA)
DNA 1: B10 DNA 1 with T15G, A20G
DNA 2: B10 DNA 2 with T14C, A19C
B11: no binding (PcRsmA); no binding (PcYap1).
